Assay results: patent US10724034B2, “Genetic encoding of chemical post-translational modification for phage-displayed libraries” (THE GOVERNORS OF THE UNIVERSITY OF ALBERTA, priority 2014, dated 2020)

Tests used:
streptavidin [1] = target: streptavidin (UniProt P22629); assay: panning/deep seq., Ratio col 3 (Streptavadin/Bulk amplified by arithmetic)
streptavidin [2] = target: streptavidin (UniProt P22629); assay: panning/deep seq., Ratio col 2 (Streptavadin/Naive by arithmetic)
streptavidin [3] = target: streptavidin (UniProt P22629); assay: panning/deep seq., Streptavadin rep 1
streptavidin [4] = target: streptavidin (UniProt P22629); assay: panning/deep seq., Ratio col 1 (Streptavadin/Blank by arithmetic)
streptavidin [5] = target: streptavidin (UniProt P22629); assay: panning/deep seq., Streptavadin rep 3
streptavidin [6] = target: streptavidin (UniProt P22629); assay: panning/deep seq., Streptavadin rep 2
[7] = target: T1, Bovine carbonic anhydrase II (bovine, UniProt P00921 2-260); assay: panning/deep seq., Carbonic rep 2 [Carbonic Anhydrase]
T1 construct: Commercial protein; also called BCA

[8] = target: T1, Bovine carbonic anhydrase II; assay: panning/deep seq., Ratio col 1 (Carbonic/Blank by arithmetic) [Carbonic Anhydrase]
[9] = target: T1, Bovine carbonic anhydrase II; assay: panning/deep seq., Carbonic rep 1 [Carbonic Anhydrase]
[10] = target: T1, Bovine carbonic anhydrase II; assay: panning/deep seq., Ratio col 3 (Carbonic/Bulk amplified by arithmetic) [Carbonic Anhydrase]
[11] = target: T1, Bovine carbonic anhydrase II; assay: panning/deep seq., Carbonic rep 3 [Carbonic Anhydrase]
[12] = target: T1, Bovine carbonic anhydrase II; assay: panning/deep seq., Ratio col 2 (Carbonic/Naive by arithmetic) [Carbonic Anhydrase]

T1 sequence (P00921 2-260 limits assumed): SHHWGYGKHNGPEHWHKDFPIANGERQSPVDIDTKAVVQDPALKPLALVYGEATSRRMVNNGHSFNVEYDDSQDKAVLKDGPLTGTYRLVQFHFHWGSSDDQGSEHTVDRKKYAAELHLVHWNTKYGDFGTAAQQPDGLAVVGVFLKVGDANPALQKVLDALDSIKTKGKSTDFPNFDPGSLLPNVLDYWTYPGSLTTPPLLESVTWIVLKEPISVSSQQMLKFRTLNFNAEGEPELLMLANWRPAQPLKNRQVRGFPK
Chain of streptavidin (P22629 37-163 limits assumed): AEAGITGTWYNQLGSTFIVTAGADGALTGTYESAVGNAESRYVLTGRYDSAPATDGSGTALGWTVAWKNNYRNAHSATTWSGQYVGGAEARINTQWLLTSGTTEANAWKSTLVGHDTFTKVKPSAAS

Row | Ratio (streptavidin [1]) | Ratio (streptavidin [2]) | copy number (streptavidin [3]) | Ratio (streptavidin [4]) | copy number (streptavidin [5]) | copy number (streptavidin [6]) | copy number [7] | Ratio [8] | copy number [9] | Ratio [10] | copy number [11] | Ratio [12] | Substance
1 | 138 | 138 | 382 | 920 | 333 | 113 | – | – | – | – | – | – | Bio-AHPL (peptide)
2 | 614 | 68 | 240 | 682 | 147 | 227 | – | – | – | – | – | – | Bio-GYTQ (peptide)
3 | 68 | 532 | 246 | 532 | 98 | 135 | – | – | – | – | – | – | Bio-HFTN (peptide)
4 | 12 | 88 | 95 | 294 | 72 | 98 | – | – | – | – | – | – | Bio-HKLN (peptide)
5 | 56 | 373 | 58 | 373 | 168 | 110 | – | – | – | – | – | – | Bio-HLRV (peptide)
6 | 44 | 52 | 118 | 344 | 71 | 121 | – | – | – | – | – | – | Bio-HMPR (peptide)
7 | 58 | 67 | 85 | 448 | 104 | 214 | – | – | – | – | – | – | Bio-HPSY (peptide)
8 | 89 | 492 | 125 | 492 | 210 | 108 | – | – | – | – | – | – | Bio-PALP (peptide)
9 | 99 | 219 | 82 | 219 | 54 | 61 | – | – | – | – | – | – | Bio-PFVQ (peptide)
10 | 15 | 14 | 84 | 271 | 123 | 37 | – | – | – | – | – | – | Bio-PHLP (peptide)
11 | 58 | 21 | 53 | 259 | 70 | 110 | – | – | – | – | – | – | Bio-PHYN (peptide)
12 | 33 | 38 | 110 | 257 | 50 | 71 | – | – | – | – | – | – | Bio-PLAQ (peptide)
13 | 197 | 41 | 282 | 1090 | 453 | 248 | – | – | – | – | – | – | Bio-PQMS (peptide)
14 | 56 | 21 | 145 | 493 | 174 | 125 | – | – | – | – | – | – | Bio-PSIG (peptide)
15 | 64 | 75 | 154 | 500 | 118 | 178 | – | – | – | – | – | – | Bio-PTHT (peptide)
16 | 74 | 49 | 75 | 330 | 128 | 94 | – | – | – | – | – | – | Bio-PVSI (peptide)
17 | 38 | 257 | 73 | 257 | 119 | 39 | – | – | – | – | – | – | Bio-VHAW (peptide)
18 | 75 | 75 | 29 | 251 | 110 | 87 | – | – | – | – | – | – | Bio-VHNT (peptide)
19 | 72 | 121 | 85 | 402 | 127 | 150 | – | – | – | – | – | – | Bio-WYPH (peptide)

Row | Ratio (streptavidin [1]) | Ratio (streptavidin [2]) | copy number (streptavidin [3]) | Ratio (streptavidin [4]) | copy number (streptavidin [5]) | copy number (streptavidin [6]) | copy number [7] | Ratio [8] | copy number [9] | Ratio [10] | copy number [11] | Ratio [12] | Substance
20 | 142 | 24 | 110 | 316 | 40 | 134 | – | – | – | – | – | – | Bio-YMNN (peptide)
21 | – | – | – | – | – | – | 20 | 91 | 35 | 2 | 27 | 3 | SA-QIEH (peptide)
22 | – | – | – | – | – | – | 58 | 167 | 44 | 75 | 48 | 167 | SA-TAFI (peptide)
23 | – | – | – | – | – | – | 5 | 11 | 3 | 11 | 2 | 11 | SA-WFKL (peptide)
24 | – | – | – | – | – | – | 2 | 10 | 3 | 10 | 4 | 10 | SA-WKQQ (peptide)
25 | – | – | – | – | – | – | 4 | 12 | 4 | 12 | 3 | 12 | SA-WLVL (peptide)
26 | – | – | – | – | – | – | 4 | 10 | 3 | 10 | 2 | 10 | SA-WNSK (peptide)
27 | – | – | – | – | – | – | 256 | 672 | 121 | 38 | 228 | 19 | SA-WNTK (peptide)
28 | – | – | – | – | – | – | 10 | 39 | 10 | 35 | 15 | 6 | SA-WPPP (peptide)
29 | – | – | – | – | – | – | 16 | 59 | 17 | 5 | 20 | 4 | SA-WPPY (peptide)
30 | – | – | – | – | – | – | 422 | 1580 | 403 | 102 | 596 | 178 | SA-WQQQ (peptide)
31 | – | – | – | – | – | – | 2 | 10 | 3 | 10 | 4 | 10 | SA-WSVM (peptide)
32 | – | – | – | – | – | – | 30 | 154 | 63 | 11 | 46 | 9 | SA-WTSG (peptide)
33 | – | – | – | – | – | – | 57 | 140 | 43 | 21 | 26 | 140 | SA-WTWL (peptide)
34 | – | – | – | – | – | – | 33 | 73 | 18 | 8 | 15 | 6 | SA-WTYW (peptide)
35 | – | – | – | – | – | – | 1160 | 2560 | 862 | 121 | 285 | 288 | SA-WYKL (peptide)
36 | – | – | – | – | – | – | 118 | 257 | 50 | 7 | 63 | 26 | SA-YGTH (peptide)
37 | – | – | – | – | – | – | 25 | 143 | 51 | 10 | 53 | 143 | SA-YMSN (peptide)
38 | – | – | – | – | – | – | 194 | 443 | 154 | 44 | 51 | 44 | SA-YQYS (peptide)
